Experimental data taken from publication PMC7564285.

Tests used:
[1] = target: γHV68 M11 F79A (murine γ-herpesvirus 68) (UniProt P89884); test: ITC; Beclin 1 BH3D peptide titrated into M11 protein, 25 injections of 2 μL, 14 °C; 50 mM HEPES pH 7.5, 150 mM NaCl, 2 mM βME; independent model
[2] = target: γHV68 M11 L103A (murine γ-herpesvirus 68) (UniProt P89884); test: as above
[3] = target: γHV68 M11 L128A (murine γ-herpesvirus 68) (UniProt P89884); test: as above
[4] = target: γHV68 M11 M119A (murine γ-herpesvirus 68) (UniProt P89884); test: as above
[5] = target: γHV68 M11 Y97A (murine γ-herpesvirus 68) (UniProt P89884); test: as above
[6] = target: M11 A63K (murine γ-herpesvirus 68) (UniProt P89884); test: ITC; BH3D peptide titrated into M11 protein (25 injections of 2 μL); 14 °C; 50 mM HEPES pH 7.5, 150 mM NaCl, 2 mM βME; co-dialyzed overnight; independent model
[7] = target: M11 F48A (murine γ-herpesvirus 68) (UniProt P89884); test: as above
[8] = target: M11 Y56A (murine γ-herpesvirus 68) (UniProt P89884); test: as above
[9] = target: murine γ-herpesvirus 68 vBCL2 M11, wild type (murine γ-herpesvirus 68) (UniProt P89884); test: as above

Beclin 1 BH3D peptide
Ka [1]: 4.6e+06 M⁻¹
Kd [1]: 2200 nM
Ka [2]: 417000 M⁻¹
Kd [2]: 2400 nM
Ka [3]: 1.12e+06 M⁻¹
Kd [3]: 900 nM
Ka [4]: 527000 M⁻¹
Kd [4]: 1900 nM
Ka [5]: 920000 M⁻¹
Kd [5]: 1130 nM
Ka [6]: 160000 M⁻¹
Kd [6]: 6500 nM
dH [6]: -9.49 kcal/mol
Ka [7]: 158000 M⁻¹
Kd [7]: 63400 nM
dH [7]: -8.63 kcal/mol
Ka [8]: 300000 M⁻¹
Kd [8]: 3380 nM
dH [8]: -9.03 kcal/mol
Ka [9]: 1.2e+06 M⁻¹
Kd [9]: 840 nM
dH [9]: -12.8 kcal/mol
